# Positions count from the first letter of the chain named. In names and notes the source's numbering stands.
# B1: H1H6782P (antibody, human IgG1, V domains shown)
# VH: EVQLVESGGGLVQPGRSLRLSCAASGFTFDDYAMHWVRQAPGKGLEWVSGIIWNSGHIGYGDSVKGRFTISRDNAKKSLYLQMNSLRAEDTALYYCARDSGRYQSYFDYWGQGTLVTVSS
# VL: DIQMTQSPSTLSASVGDRVTITCRASHIISSWLAWYQQKPGKAPKVLIFKASSLESGVPSRFSGSGSGTEFTLTISSLQPDDFATYYCQQYNTYSRTFGQGTKVEIK
# notes: human IgG1 Fc (H1H)
# B2: H1H6958N2 (antibody, human IgG1, V domains shown)
# VH: QVQLVESGGGVVQPGRSLRLSCGASGFTFRNYGMQWVRQGPGKGLEWVTLISFDGNDKYYADSVKGRFTISRDNSKNTLFLQMNSLRTEDTAVYYCARGGDFDYWGQGTLVTVSS
# VL: DIQMTQSPSSLSASVGDRVTITCRASQDIRKDLGWYQQKPGKAPKRLIYAASSLHSGVPSRFSGSGSGTEFTLTISSLQPEDFATYYCLQHNSYPMYTFGQGTKLEIK
# notes: also called H2M6958N2
# B3: H1H6800P (antibody, human IgG1, V domains shown)
# VH: EVQLVESGGGLVQPGRSLRLSCAASGFTFDGYAMHWVRQGPGKGLEWVSGISWYSDTLGYADSVKGRFTISRDNAKNSLYLQMNSLRTEDTAFYYCAKISSSGWAFDYWGQGTLVTVSS
# VL: EIVLTQSPGTLSLSPGERATLSCRASHSVSSAYLAWYQQKPGQTPRLLIYGTSSRATGIPDRFSGSGSGTDFTLTISRLEPEDFAVYYCQQYGSSPLFTFGPGTKVDIK
# notes: human IgG1 Fc (H1H)
# B4: H1H6765P (antibody, human IgG1, V domains shown)
# VH: EVQLVESGGGVVRPGGSLRLSCVGSGFSFDDHGMNWVRQGPGKGLEWVSGFNWNGGSTNYAESVKGRFTISRDNARNSLFLQMNSLRAEDTALYYCVRGRSGWFNDAFDVWGPGTMVTVSS
# VL: EIVLTQSPGTLSLSPGERATLSCRASQTINSNYLAWYRQKPGQTPRLLIYGTSSRATGIPDRFSGSGSGTDFSLTISRLEPEDFAVFYCQQYAGLPTFGPGTKVDIK
# notes: human IgG1 Fc (H1H)
# B5: H1H6975N (antibody, human IgG1, V domains shown)
# VH: EVHLVESGGGLVQPGGSLRLSCAASGFTFSSYEMNWVRQTPGKGLEWISHISSRSVIIYYADSVKGRFTISRDNAKNSLFLQMNSLRAEDTAVYFCAGITIFGIPEYWGQGTLVTVSS
# VL: EIVLTQSPATLSLSPGERATLSCRASQSVSSYFAWYQQKPGQAPRLLIYDASSRATGIPTRFSGSGSGTDFTLTISSLEPEDFAVYYCQQRSSWPITFGQGTRLEIK
# notes: also called H2M6975N
# B6: H1H6762P (antibody, human IgG1, V domains shown)
# VH: QVQLVESGGGVVQPGRSLRLSCAASGFTFSHYGMVWVRQPPGKGLEWVALISFDGTTKYYADSVKGRFTISRDNSKNTLYLQMNSLRAEDTAVYFCVGAIAAAAFDLWGRGTLVTVSS
# VL: EIVMTQSPATLSVSPGERATLSCRASQSVSSDLAWYQQKPGQAPRLLIYSASARATGIPARFTGSGSGTDFTLTISSLQSEDFAVYYCQQYNNWPMYTFGQGTKLEIK
# notes: human IgG1 Fc (H1H)
# B7: H1H6793P (antibody, human IgG1, V domains shown)
# VH: EVQLVESGGGLVQPGGSLRLSCAASGFSFSIYAMSWFRQAPGKGLEWVSAINGRGDGTHYADSVKGRFTISRDNSKTTLYLQMSSLRAEDTAVYYCAKPVMSTNGFDIWGQGTMVTVSS
# VL: DIQMTQSPSTLSASVGDRVTITCRASQSISSWLAWYQLKPGKAPKLLIYKASNLESGVPSRFSGSGSGTEFTLTISSLQPDDFATYYCQQYNIYWTFGQGTKVEIK
# notes: human IgG1 Fc (H1H)
# B8: H1H6785P (antibody, human IgG1, V domains shown)
# VH: EVQLVESGGGLVQPGGSLRLSCAASGFTFSSYEMNWVRQAPGKGLEWISYISSRGGTIYYADSIKGRFTIYRDNARNSLYLQMNSLRAEDTAIYYCARLSGVDIFDIWGQGTMVTVSS
# VL: DIQMTQSPSSLSASVGDRVTITCRASQGISNYLAWYQQKPGKVPKLLIYFASTLQSGVPSRFSGGGSGTDFTLTISSLQPEDVATYYCQRYNSAPLTFGGGTKVEIK
# notes: human IgG1 Fc (H1H)
# B9: H1H6781P (antibody, human IgG1, V domains shown)
# VH: EVQLVESGGDLVQPGESLRLSCTASGFTFNSYEMNWVRQAPGKGLEWVSYISSSGGTKYYVDSVKGRFTISRDNAKKSLYLQMNSLRADDTALYYCARLNGVDVFDIWGQGTMVTVSS
# VL: B8 VL with G28D, S30F, Y36F, K45E, Y49S, F50A, G65S, D70Y, V83I
# notes: human IgG1 Fc (H1H)
# B10: H1H6967N (antibody, human IgG1, V domains shown)
# VH: EVQLVESGGDLVHPGRSLRLSCAASGFPFDEYAMHWVRQVPGKGLEWVSGISWSNNNIGYADSVKGRFTISRDNAKNSLYLQMNSLRPEDTAFYYCAKSGIFDSWGQGTLVTVSS
# VL: EIVMTQSPATLSVSPGERATLSCRASQSVSRDLAWYQQKPGQAPRLLIHGASTRATGIPARFSGSGSGAEFTLIISSLQSEDFAVYYCQQYNNWPLTFGGGTKVEIK
# notes: also called H2M6967N
# B11: H1H6976N (antibody, human IgG1, V domains shown)
# VH: EVQLLESGGGFVQPGGSLRLSCAASGFTFSSYAMSWVRQAPGKGLEWVSIISSNGRYTYYADSVKGRFTISRDNSKNTLYLQMNSLRAEDTAVYYCATVTGDWFDPWGQGTLVTVSS
# VL: DIQLTQSPSFLSASVGDRVTITCWASQDIDISLAWYQQKPGKAPKLLIYAASTLQSGVPSKFSGSGSGTDFTLTISSLQPEDFSTYYCQQLNSYPITFGQGTRLDIK
# notes: also called H2M6976N
# B12: H1H6803P (antibody, human IgG1, V domains shown)
# VH: EVQLVESGGGVVRPGGSLRLSCAASGFKFDDYGMTWVRHVPGKGLEWVSGINWNGGRTGYTDSVKGRFTISRDNAKNSLYLQMNSLRAEDTALYHCAGARRDAFDIWGQGTMVTVSS
# VL: DIQMTQSPSSLSASIGDRVTITCRASQNIIKYLNWYQQNAGKAPKLLIYTASSLQSGVPSRFSGSGSGTDFTLTISSLQPEDFATYYCQQSSSSPYTFGQGTKLEIK
# notes: human IgG1 Fc (H1H)
# Molecular target: T1, human PRLR construct with an HA tag on HEK293/hPRLR cells (human, UniProt P16471 25-622)
# T1 sequence: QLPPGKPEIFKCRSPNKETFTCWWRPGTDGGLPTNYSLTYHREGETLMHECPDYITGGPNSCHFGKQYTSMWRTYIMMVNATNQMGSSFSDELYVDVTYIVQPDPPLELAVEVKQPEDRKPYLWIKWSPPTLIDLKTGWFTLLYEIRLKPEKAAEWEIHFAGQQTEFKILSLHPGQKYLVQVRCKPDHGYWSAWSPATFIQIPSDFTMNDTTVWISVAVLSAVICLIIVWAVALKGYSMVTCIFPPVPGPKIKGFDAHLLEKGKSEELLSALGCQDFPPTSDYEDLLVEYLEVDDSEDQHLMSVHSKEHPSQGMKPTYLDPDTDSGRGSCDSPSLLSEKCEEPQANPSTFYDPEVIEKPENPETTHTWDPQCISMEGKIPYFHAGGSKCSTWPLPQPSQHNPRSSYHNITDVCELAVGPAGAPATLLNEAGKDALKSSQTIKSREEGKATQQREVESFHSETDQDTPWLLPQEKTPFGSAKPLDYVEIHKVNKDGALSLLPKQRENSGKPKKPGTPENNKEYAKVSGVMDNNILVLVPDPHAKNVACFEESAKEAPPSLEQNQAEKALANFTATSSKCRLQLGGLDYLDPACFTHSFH
# Assay: FACS on HEK293/hPRLR cells
row,Binder,FACS Cell Binding (Fold Above Background) [fold]
1,B1,41
2,B2,35
3,B3,35
4,B4,38
5,B5,38
6,B6,36
7,B7,2
8,B8,37
9,B9,37
10,B10,38
11,B11,8
12,B12,39

# Molecular target: T2, monkey macaca fascicularis PRLR construct with an HA tag on HEK293/mfPRLR cells (macaca fascicularis, UniProt A0A2K5WXK1 25-619)
# T2 construct: stably transfected into HEK293
# T2 sequence: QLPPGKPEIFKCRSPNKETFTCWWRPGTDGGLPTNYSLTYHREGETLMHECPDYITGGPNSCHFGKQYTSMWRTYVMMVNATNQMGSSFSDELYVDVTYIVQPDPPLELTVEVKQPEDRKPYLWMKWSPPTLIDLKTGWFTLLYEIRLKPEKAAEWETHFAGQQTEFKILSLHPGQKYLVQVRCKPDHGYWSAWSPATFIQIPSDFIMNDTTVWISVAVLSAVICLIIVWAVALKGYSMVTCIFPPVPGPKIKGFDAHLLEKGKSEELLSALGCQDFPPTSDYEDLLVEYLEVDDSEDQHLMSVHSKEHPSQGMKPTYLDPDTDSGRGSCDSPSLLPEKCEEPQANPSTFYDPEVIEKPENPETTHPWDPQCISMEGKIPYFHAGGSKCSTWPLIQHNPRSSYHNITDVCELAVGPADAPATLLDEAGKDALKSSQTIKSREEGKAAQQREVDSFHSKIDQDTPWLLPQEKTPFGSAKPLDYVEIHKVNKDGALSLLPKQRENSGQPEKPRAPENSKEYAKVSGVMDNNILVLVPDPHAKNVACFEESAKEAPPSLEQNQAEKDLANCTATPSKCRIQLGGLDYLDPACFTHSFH
# Assay: FACS on HEK293/mfPRLR cells
row,Binder,FACS Cell Binding (Fold Above Background) [fold]
1,B1,32
2,B2,30
3,B3,29
4,B4,27
5,B5,29
6,B6,26
7,B7,32
8,B8,26
9,B9,26
10,B10,28
11,B11,29
12,B12,28

# Molecular target: T3, human PRLR on cells (endogenous on T47D, T47D#11, MCF7); introduced in HEK293/hPRLR/STAT5-Luc, 293/hPRLR, … (human, UniProt P16471 25-622)
# T3 construct: no tag is stated for these lines; also called prolactin receptor
# T3 sequence: T1 sequence
# Assay: imaging of alexa488 intensity on T47D cells
# Protocol: Briefly, 20,000 T47D cells were seeded in collagen coated 96 well plates. […] Cells were then incubated with alexa488 conjugated anti-hFc Fab secondary antibodies for 30 minutes on ice followed by two additional PBS washes. Antibodies were allowed to internalize for 1 h at 37° C. in internalization buffer (PBS+2% FBS) or remained at 4° C. Cells were fixed in 4% formaldehyde, nuclei were stained with DRAQ5 (Cell signaling), and images were acquired on the ImageXpress micro XL (Molecular Devices). Whole cell alexa488 intensity at 37° C. (Binding) and the alexa488 intensity in the intracellular vesicles at 37° C. (Internalization) were determined via Columbus image analysis software (PerkinElmer).
row,Binder,% Total Binding relative to Control I [%]
1,B1,210
2,B2,162
3,B3,187
4,B4,191
5,B5,226
6,B6,177
7,B7,178
8,B8,168
9,B9,166
10,B10,159
11,B11,180
12,B12,206
